In paper PMC9245664 (Proceedings of the National Academy of Sciences of the …, 2022):
Numbering of substitutions follows the chain as printed.

Assays:
Experiment in all cases: NMR titration
[1] = target: T1, Wzc_(CDΔC,ΔCys) (Cys544Ser/Cys563Ser) (E. coli (K-12), UniProt P76387 447-704, Cys544Ser | Cys563Ser)
T1 sequence: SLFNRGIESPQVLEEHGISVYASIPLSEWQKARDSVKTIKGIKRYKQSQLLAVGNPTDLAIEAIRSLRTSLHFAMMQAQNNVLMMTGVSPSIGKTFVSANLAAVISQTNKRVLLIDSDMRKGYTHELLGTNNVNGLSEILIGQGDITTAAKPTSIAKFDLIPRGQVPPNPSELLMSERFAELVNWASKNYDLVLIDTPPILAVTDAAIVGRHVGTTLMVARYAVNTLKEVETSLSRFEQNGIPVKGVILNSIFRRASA

[2] = target: T2, Wzc_(CDΔC,ΔCys,Val466Cys) (E. coli (K-12), UniProt P76387 447-704, Cys544Ser | Cys563Ser | Val466Cys)
T2 sequence: T1 sequence with V20C

[3] = target: T3, Wzc_(CDΔC,ΔCys,Leu505Cys) (E. coli (K-12), UniProt P76387 447-704, Cys544Ser | Cys563Ser | Leu505Cys)
T3 sequence: T1 sequence with L59C

[4] = target: T4, Wzc_(CDΔC,ΔCys,Ser516Cys) (E. coli (K-12), UniProt P76387 447-704, Cys544Ser | Cys563Ser | Ser516Cys)
T4 sequence: T1 sequence with S70C

[5] = target: T5, Wzc_(CDΔC,ΔCys,Gln523Cys) (E. coli (K-12), UniProt P76387 447-704, Cys544Ser | Cys563Ser | Gln523Cys)
T5 sequence: T1 sequence with Q77C

[6] = target: T6, Wzc_(CDΔC,ΔCys,Lys556Cys) (E. coli (K-12), UniProt P76387 447-704, Cys544Ser | Cys563Ser | Lys556Cys)
T6 sequence: T1 sequence with K110C

B1: full-length E. coli (K-12) Wzb, wild type (enzyme)
chain: MFNNILVVCVGNICRSPTAERLLQRYHPELKVESAGLGALVGKGADPTAISVAAEHQLSLEGHCARQISRRLCRNYDLILTMEKRHIERLCEMAPEMRGKVMLFGHWDNECEIPDPYRKSRETFAAVYTLLERSARQWAQALNAEQV
Question: For B1, which Kd [1] is on record?
Answer: Its Kd is 15.2 ± 0.6 µM.

Question: And the Kd [2]?
Answer: Its Kd is 8.9 ± 0.3 µM.

Question: What about the Kd [3] of the same binder?
Answer: Its Kd is 43.8 ± 1.3 µM.

Question: What about the Kd [4] of the same binder?
Answer: Its Kd is 11.3 ± 0.7 µM.

Question: And the Kd [5]?
Answer: Its Kd is 16.9 ± 0.5 µM.

Question: What about the Kd [6] of the same binder?
Answer: The Kd was 7.3 ± 0.4 µM.
